The sequences below were run against FGFR3 (UniProt P22607) (assay: phosphorylation enrichment, bacterial display (enrichment ratio); higher = better substrate or ligand; peptides without Tyr show the background).
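Further: 11-residue human phosphosite peptides and single-mutation variants displayed on the E. coli surface, counted by deep sequencing, each peptide's frequency after selection divided by its frequency in the unselected input library; frequency after pTyr selection over input frequency; kinase dosed for 20-30% of maximal phosphorylation in three min.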

Chain of FGFR3 (P22607 whole entry, looked up): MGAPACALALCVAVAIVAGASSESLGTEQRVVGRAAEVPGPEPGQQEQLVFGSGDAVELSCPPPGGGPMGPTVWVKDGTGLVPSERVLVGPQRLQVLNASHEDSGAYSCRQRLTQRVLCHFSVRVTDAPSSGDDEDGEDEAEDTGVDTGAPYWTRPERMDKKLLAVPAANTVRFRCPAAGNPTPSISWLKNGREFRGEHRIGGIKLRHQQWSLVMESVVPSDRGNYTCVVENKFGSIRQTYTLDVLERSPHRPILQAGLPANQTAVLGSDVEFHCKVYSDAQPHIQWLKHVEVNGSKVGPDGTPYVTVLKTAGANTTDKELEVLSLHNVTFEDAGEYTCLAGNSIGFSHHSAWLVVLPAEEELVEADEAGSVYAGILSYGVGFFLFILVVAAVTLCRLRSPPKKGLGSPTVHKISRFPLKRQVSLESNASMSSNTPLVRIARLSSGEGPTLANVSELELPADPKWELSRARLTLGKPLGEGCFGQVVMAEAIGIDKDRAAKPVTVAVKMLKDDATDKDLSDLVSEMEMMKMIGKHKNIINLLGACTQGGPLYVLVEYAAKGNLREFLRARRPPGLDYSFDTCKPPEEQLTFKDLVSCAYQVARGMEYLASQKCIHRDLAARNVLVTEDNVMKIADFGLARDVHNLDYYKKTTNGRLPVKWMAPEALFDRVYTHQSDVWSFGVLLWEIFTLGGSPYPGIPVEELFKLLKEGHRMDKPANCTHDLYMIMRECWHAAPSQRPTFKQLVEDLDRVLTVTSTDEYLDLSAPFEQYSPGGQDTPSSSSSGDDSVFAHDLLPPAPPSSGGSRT

| Sequence | phosphorylation enrichment |
| --- | --- |
| VHHLVYHHHHH [CACNA1H_Y519] | 1.23 |
| CLMILYRLKER [PTPRR_Y249] | 0.809 |
| GKFFQYDTWKQ [IGF2_Y116] | 0.514 |
| LSGFCYRLSDQ [PDCD6_Y124_G123C] | 1.33 |
| NVFGNYNQQPS [HNRNPA2B1_Y306_D302V] | 0.471 |
| CTLNVYRQLHN [LUZP1_Y1036_S1034N] | 0.749 |
| VVTFSYKPPGN [RBL2_Y544] | 0.519 |
| SLLLSYYLIKW [NUP160_Y773_P768S] | 2.09 |
| LEPHIYAVADV [MYO9A_Y216] | 0.616 |
| KVALPYKPFFF [POLE_Y100_YF] | 0.537 |
| AGREIYESDKC [TTN_Y4424] | 0.819 |
| PVFIKYLPEWT [PSEN1_Y240_L235P] | 1.04 |
| KKLHKYNTQFQ [PIK3R1_Y452_E451K] | 1.13 |
| LFDHIYTTQSD [RET_Y928] | 3.56 |
| DSFATYFRWVL [H2BW1_Y84_R87W] | 1.98 |
| FEKFLYFLPAS [DYNC2H1_Y346_H341Y_YF] | 0.852 |
| NQDRTYYERVR [SPEN_Y632_S635R] | 0.486 |

| Sequence | phosphorylation enrichment |
| --- | --- |
| PLGKDYRKVEG [MAP1A_Y1909_A1912V] | 0.685 |
| CRERPYGGGGG [FUS_Y526_R521C] | 0.468 |
| QFNIQYSSSAA [ERBB2IP_Y981_YF] | 0.661 |
| FADGVYLALEE [DUOX2_Y70_Q71L_YF] | 1.02 |
| AKQVGYENAGT [PC_Y304] | 0.549 |
| YFVVEYRDQKP [MUC17_Y4332] | 12.1 |
| FAKTQYPDIFA [CRX_Y63_V66I_YF] | 0.528 |
| EHAGEYGAEAL [HBA1_Y25_A20E] | 0.681 |
| RLCQDYDIIGP [ANK1_Y1073_T1075I] | 1.84 |
| AAAAMYTFLPD [MYORG_Y36] | 12 |
| RRESQYQENRG [LRCH3_Y354] | 0.663 |
| CKQGKYLNWDA [ATM_Y54_S49C] | 0.632 |
| KGELRYMHSRV [ABCD1_Y281] | 0.44 |
| SFHCSYSEIKD [DCLRE1C_Y322_S320C] | 0.811 |
| AAVDNYCRHNF [HLA-DRB1_Y107_T106N_YF] | 1.33 |
| RSFPSYYTSHV [NEFL_Y442] | 1.28 |

Each sequence was assayed on Fer (mouse) in the same assay as above.

| Sequence | phosphorylation enrichment |
| --- | --- |
| VHHLVYHHHHH [CACNA1H_Y519] | 0.896 |
| CLMILYRLKER [PTPRR_Y249] | 0.501 |
| GKFFQYDTWKQ [IGF2_Y116] | 0.468 |
| LSGFCYRLSDQ [PDCD6_Y124_G123C] | 0.816 |
| NVFGNYNQQPS [HNRNPA2B1_Y306_D302V] | 0.315 |
| CTLNVYRQLHN [LUZP1_Y1036_S1034N] | 0.516 |
| VVTFSYKPPGN [RBL2_Y544] | 0.367 |
| SLLLSYYLIKW [NUP160_Y773_P768S] | 0.47 |
| LEPHIYAVADV [MYO9A_Y216] | 1.64 |
| KVALPYKPFFF [POLE_Y100_YF] | 0.455 |
| AGREIYESDKC [TTN_Y4424] | 0.519 |
| PVFIKYLPEWT [PSEN1_Y240_L235P] | 0.759 |
| KKLHKYNTQFQ [PIK3R1_Y452_E451K] | 0.503 |
| LFDHIYTTQSD [RET_Y928] | 6.22 |
| DSFATYFRWVL [H2BW1_Y84_R87W] | 2.46 |
| FEKFLYFLPAS [DYNC2H1_Y346_H341Y_YF] | 0.55 |
| NQDRTYYERVR [SPEN_Y632_S635R] | 0.511 |

| Sequence | phosphorylation enrichment |
| --- | --- |
| PLGKDYRKVEG [MAP1A_Y1909_A1912V] | 0.456 |
| CRERPYGGGGG [FUS_Y526_R521C] | 0.647 |
| QFNIQYSSSAA [ERBB2IP_Y981_YF] | 0.458 |
| FADGVYLALEE [DUOX2_Y70_Q71L_YF] | 0.584 |
| AKQVGYENAGT [PC_Y304] | 0.461 |
| YFVVEYRDQKP [MUC17_Y4332] | 0.75 |
| FAKTQYPDIFA [CRX_Y63_V66I_YF] | 0.517 |
| EHAGEYGAEAL [HBA1_Y25_A20E] | 0.427 |
| RLCQDYDIIGP [ANK1_Y1073_T1075I] | 1.81 |
| AAAAMYTFLPD [MYORG_Y36] | 1 |
| RRESQYQENRG [LRCH3_Y354] | 0.563 |
| CKQGKYLNWDA [ATM_Y54_S49C] | 0.397 |
| KGELRYMHSRV [ABCD1_Y281] | 0.375 |
| SFHCSYSEIKD [DCLRE1C_Y322_S320C] | 0.639 |
| AAVDNYCRHNF [HLA-DRB1_Y107_T106N_YF] | 0.471 |
| RSFPSYYTSHV [NEFL_Y442] | 0.65 |

Reference: the supplement of paper PMC10065799, “High-throughput profiling of sequence recognition by tyrosine kinases and SH2 domains using bacterial peptide display” (eLife, 2023)
